# Literature values, collected in patent US6632836B1, “Carbocyclic potassium channel inhibitors” (Merck & Co., Inc., priority 1998, dated 2003).
# Biological target: T1, Kv1.3 channels (Homo sapiens, UniProt P22001)
# T1 construct: expressed in transfected cells; host or cells: CHO cells
# Details: reference blocker used at saturating concentration to establish the efflux window; read-out: IC50 as blocker of Kv1.3 channels
# T1 sequence (P22001 whole entry): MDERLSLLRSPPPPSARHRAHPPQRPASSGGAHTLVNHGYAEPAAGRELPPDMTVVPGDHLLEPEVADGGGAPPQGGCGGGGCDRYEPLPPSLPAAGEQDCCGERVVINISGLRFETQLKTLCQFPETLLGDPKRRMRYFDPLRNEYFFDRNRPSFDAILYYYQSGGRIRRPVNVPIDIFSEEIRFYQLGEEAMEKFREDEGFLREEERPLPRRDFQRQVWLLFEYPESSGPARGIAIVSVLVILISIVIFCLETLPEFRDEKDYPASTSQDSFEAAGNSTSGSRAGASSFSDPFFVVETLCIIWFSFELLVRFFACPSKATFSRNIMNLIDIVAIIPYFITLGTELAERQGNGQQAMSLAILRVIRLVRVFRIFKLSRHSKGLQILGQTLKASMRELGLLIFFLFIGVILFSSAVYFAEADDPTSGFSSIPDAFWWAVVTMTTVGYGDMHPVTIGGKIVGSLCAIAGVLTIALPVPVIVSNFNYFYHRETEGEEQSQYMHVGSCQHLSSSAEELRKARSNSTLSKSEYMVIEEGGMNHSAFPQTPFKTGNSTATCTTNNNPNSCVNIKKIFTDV
substance,measurement,value
"margatoxin (TIINVKCTSPKQCLPPCKAQFGQSAGAKCMNGKCKCYPH; UniProt P40755 1-39, looked up)",IC50,0.1 nM
